# Assay results reported in patent publication US20250376529A1 (Amgen, published 2025).
# Substitutions are numbered along the chain they refer to.
# T1: human GIPR transiently expressed on 293T cells (human, UniProt P48546 22-466)
# T1 sequence: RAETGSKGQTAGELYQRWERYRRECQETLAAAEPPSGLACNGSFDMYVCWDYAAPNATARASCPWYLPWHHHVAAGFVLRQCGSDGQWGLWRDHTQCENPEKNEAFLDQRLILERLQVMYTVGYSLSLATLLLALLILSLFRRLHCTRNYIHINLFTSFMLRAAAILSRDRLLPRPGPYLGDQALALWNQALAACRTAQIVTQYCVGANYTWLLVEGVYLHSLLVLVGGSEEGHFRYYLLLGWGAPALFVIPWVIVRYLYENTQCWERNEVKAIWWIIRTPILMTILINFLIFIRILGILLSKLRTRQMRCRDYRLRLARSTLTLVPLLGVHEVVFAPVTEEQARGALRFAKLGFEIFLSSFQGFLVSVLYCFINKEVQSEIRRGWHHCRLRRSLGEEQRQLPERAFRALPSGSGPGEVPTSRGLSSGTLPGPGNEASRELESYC
# T2: Rhesus GIPR (rhesus, UniProt F7E1R9 22-466)
# T2 sequence: T1 sequence with K7E, A31T, D51N, M160T, A186V, L226I, F365L, S422G, S438R, E440V
# T3: huGIPR ECD (human, UniProt P48546 22-139, limits assumed)
# T3 construct: Soluble ECD injected in the MASS-1 assay; also called human GIPR extracellular domain
# T3 sequence: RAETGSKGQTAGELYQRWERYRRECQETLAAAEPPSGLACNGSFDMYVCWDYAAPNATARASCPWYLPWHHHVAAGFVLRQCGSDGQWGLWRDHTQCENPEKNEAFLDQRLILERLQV
# B1: 2G10_LC1.006 (antibody, human IgG1, kappa, N297G, V domains shown)
# VH: not shown
# VL: EIVMTQSPATLSVSPGERATLSCRASQSVSSNLAWYQQKPGQAPRLLIYGAATRATGIPARVSGSGSGTEFTLTISSLQSEDFAVYYCQQYNNWPLTFGGGTKVEIKR
# notes: also called iPS:361192; iPS:361194
# Experiments:
# [1] = target: T1, human GIPR transiently expressed on …; assay: cell-based or functional assay
# Rhesus GIPR = target: T2, Rhesus GIPR; assay: cell-based or functional assay
# huGIPR ECD = target: T3, huGIPR ECD; assay: SPR (MASS-1), captured mAb, 200 nM huGIPR ECD
# Procedure: Binding assays were carried out on the immobilized goat anti-huFc antibody surface by MASS-1. The experiment was performed at 25° C. The instrument running buffer was 0.005% P20/PBS. The goat anti-huFc capture antibody was covalently attached to the sensor chip surface via standard amine coupling to flow cells channel 1-8/A&B. The anti-huGIPR antibodies were diluted in sample buffer (0.1 mg/mL BSA, 0.005% P20, PBS) to 10 nM then captured to flow cells channel B. Channel A was as a blank reference surface without injection of anti-huGIPR antibody. The captured response range of channel B was ˜100-400 RU. Then 200 nM huGIPR ECD was injected over the goat anti-huFc antibody captured anti-huGIPR antibody surfaces at flow rate 25 μL/min for 3 minutes. After a 6 minute dissociation, each surface was regenerated by injecting 10 mM Glycine, pH1.5 for 30 seconds. The sensorgrams were analyzed using MASS-1 software (AnalyserR2, version 0.1.6.5).
binder,measurement,setting,value
B1,Hu GIPR CAMP Assay (Conc. mAb @ 60% Inhibition in nM),[1],1.04 nM
same,Rhesus GIPR CAMP Assay (Conc. mAb @ 60% Inhibition in nM),Rhesus GIPR,0.52 nM
same,koff,huGIPR ECD,0.001 s⁻¹
